Values joined by “and” are separate entries in the source; they are usually repeats but may differ in a detail not shown here. Equal entries are not always repeated. Where two headings read alike, the source gives them in different places.
Experiments:
[1] = format: in vivo, adolescent patients; conditions: for Kidneys projected CAD, median (range) / Kidneys projected CAD, mean (SD): coefficient × 4 × 7.4
[2] = Blood pharmacokinetics after one administration, population approach; format: in vivo, adolescent and adult patients
[3] = Laboratory abnormalities during Cycle 1, safety set; set-up: species or system adolescent patients; conditions: in vivo
[4] = in vivo
[5] = Observed, adult GEP-NET N=47, historical data; ref NETTER-1 and Erasmus studies; cited from earlier work
[6] = ref NETTER-1, cited from earlier work
[7] = Observed, adolescent GEP-NET and PPGL N=11
[8] = adolescents, 11 patients, population approach

In the case of C[C@@H](O)[C@H](NC(=O)[C@@H]1CSSC[C@H](NC(=O)[C@@H](Cc2ccccc2)NC(=O)CN2CCN(CC(=O)O)CCN(CC(=O)O)CCN(CC(=O)O)CC2)C(=O)N[C@@H](Cc2ccc(O)cc2)C(=O)N[C@H](Cc2c[nH]c3ccccc23)C(=O)N[C@@H](CCCCN)C(=O)N[C@@H]([C@@H](C)O)C(=O)N1)C(=O)O [177Lu-DOTATATE, [^177Lu]Lu-DOTA-TATE, metal not drawn], the “Kidneys absorbed dose coefficient, mean (SD)” value ([1]; All patients) is reported as 0.78 ± 0.28 Gy/GBq and 0.78 (0.28) Gy/GBq, the “Kidneys absorbed dose coefficient, median (range)” value ([1]; All patients) is reported as 0.71 (0.46–1.3) Gy/GBq and the “Red marrow (blood) absorbed dose coefficient, mean (SD)” value ([1]; All patients) is reported as 0.026 ± 0.0050 Gy/GBq and 0.026 (0.0050) Gy/GBq. The “Red marrow (blood) absorbed dose coefficient, median (range)” value ([1]; All patients) was 0.026 (0.019–0.035) Gy/GBq, the “Red marrow (blood) projected CAD, mean (SD)” value ([1]; All patients) was 0.78 ± 0.15 Gy and 0.78 (0.15) Gy and the “Red marrow (blood) projected CAD, median (range)” value ([1]; All patients) was 0.76 (0.55–1.0) Gy. For the same compound, the “Spleen absorbed dose coefficient, mean (SD)” value ([1]; All patients) was 0.74 (0.27) Gy/GBq, the “Spleen absorbed dose coefficient, median (range)” value ([1]; All patients) was 0.72 (0.28–1.1) Gy/GBq and the “Spleen projected CAD, mean (SD)” value ([1]; All patients) was 22 (8.1) Gy. The “Spleen projected CAD, median (range)” value ([1]; All patients) was 21 (8.3–34) Gy, the “Total body absorbed dose coefficient, mean (SD)” value ([1]; All patients) was 0.040 (0.0095) Gy/GBq and the “Total body projected CAD, mean (SD)” value ([1]; All patients) was 1.2 (0.28) Gy. The “Total body projected CAD, median (range)” value ([1]; All patients) was 1.2 (0.66–1.6) Gy, the “Urinary bladder wall absorbed dose coefficient, mean (SD)” value ([1]; All patients) was 0.55 (0.089) Gy/GBq and the “Urinary bladder wall absorbed dose coefficient, median (range)” value ([1]; All patients) was 0.52 (0.47–0.68) Gy/GBq. For the same compound, the “Urinary bladder wall projected CAD, mean (SD)” value ([1]; All patients) was 16 (2.6) Gy, the “Urinary bladder wall projected CAD, median (range)” value ([1]; All patients) was 15 (14–20) Gy and the “Tumour absorbed dose coefficient, mean (SD)” value ([1]; All patients, 18 lesions) was 2.0 (1.2) Gy/GBq. For the same compound, the “Tumour absorbed dose coefficient, median (range)” value ([1]; All patients, 18 lesions) was 1.9 (0.17–5.1) Gy/GBq, the “Tumour projected CAD, mean (SD)” value ([1]; All patients, 18 lesions) was 58 (37) Gy and the “Tumour projected CAD, median (range)” value ([1]; All patients, 18 lesions) was 55 (4.9–150) Gy. The “Pituitary absorbed dose coefficient, mean (SD)” value ([1]; All patients, n=9) was 1.1 (0.43) Gy/GBq, the “Pituitary absorbed dose coefficient, median (range)” value ([1]; All patients, n=9) was 1.0 (0.61–1.9) Gy/GBq and the “Pituitary projected CAD, mean (SD)” value ([1]; All patients, n=9) was 33 ± 13 Gy and 33 (13) Gy. For the same compound, the “Pituitary projected CAD, median (range)” value ([1]; All patients, n=9) was 30 (18–56) Gy, the “Kidneys projected CAD, median (range)” value ([1]; All patients) was 21 (14–40) Gy and the “Kidneys absorbed dose coefficient, mean (SD)” value ([1]; GEP-NET) was 0.71 (0.25) Gy/GBq. The “Kidneys absorbed dose coefficient, median (range)” value ([1]; GEP-NET) was 0.71 (0.46–0.96) Gy/GBq, the “Red marrow (blood) absorbed dose coefficient, mean (SD)” value ([1]; GEP-NET) was 0.024 (0.0035) Gy/GBq and the “Red marrow (blood) absorbed dose coefficient, median (range)” value ([1]; GEP-NET) was 0.024 (0.019–0.027) Gy/GBq. The “Red marrow (blood) projected CAD, mean (SD)” value ([1]; GEP-NET) was 0.70 (0.10) Gy, the “Red marrow (blood) projected CAD, median (range)” value ([1]; GEP-NET) was 0.72 (0.55–0.79) Gy and the “Spleen absorbed dose coefficient, mean (SD)” value ([1]; GEP-NET) was 0.63 (0.39) Gy/GBq. For the same compound, the “Spleen absorbed dose coefficient, median (range)” value ([1]; GEP-NET) was 0.55 (0.28–1.1) Gy/GBq, the “Spleen projected CAD, mean (SD)” value ([1]; GEP-NET) was 19 (12) Gy and the “Spleen projected CAD, median (range)” value ([1]; GEP-NET) was 16 (8.3–34) Gy. The “Total body absorbed dose coefficient, mean (SD)” value ([1]; GEP-NET) was 0.040 (0.013) Gy/GBq, the “Total body absorbed dose coefficient, median (range)” value ([1]; GEP-NET) was 0.040 (0.022–0.055) Gy/GBq and the “Total body projected CAD, mean (SD)” value ([1]; GEP-NET) was 1.2 (0.40) Gy. For the same compound, the “Total body projected CAD, median (range)” value ([1]; GEP-NET) was 1.2 (0.66–1.6) Gy, the “Urinary bladder wall absorbed dose coefficient, mean (SD)” value ([1]; GEP-NET) was 0.50 (0.034) Gy/GBq and the “Urinary bladder wall absorbed dose coefficient, median (range)” value ([1]; GEP-NET) was 0.49 (0.47–0.54) Gy/GBq. For the same compound, the “Urinary bladder wall projected CAD, mean (SD)” value ([1]; GEP-NET) was 15 (1.0) Gy, the “Urinary bladder wall projected CAD, median (range)” value ([1]; GEP-NET) was 14 (14–16) Gy and the “Tumour absorbed dose coefficient, mean (SD)” value ([1]; GEP-NET, 8 lesions) was 2.6 (1.2) Gy/GBq. For the same compound, the “Tumour absorbed dose coefficient, median (range)” value ([1]; GEP-NET, 8 lesions) was 2.3 (1.4–5.1) Gy/GBq, the “Tumour projected CAD, mean (SD)” value ([1]; GEP-NET, 8 lesions) was 76 ± 35 Gy and 76 (35) Gy and the “Tumour projected CAD, median (range)” value ([1]; GEP-NET, 8 lesions) was 69 (41–150) Gy. The “Pituitary absorbed dose coefficient, mean (SD)” value ([1]; GEP-NET, n=3) was 1.2 (0.43) Gy/GBq, the “Pituitary absorbed dose coefficient, median (range)” value ([1]; GEP-NET, n=3) was 1.1 (0.93–1.7) Gy/GBq and the “Pituitary projected CAD, mean (SD)” value ([1]; GEP-NET, n=3) was 37 (13) Gy. The “Pituitary projected CAD, median (range)” value ([1]; GEP-NET, n=3) was 32 (28–51) Gy, the “Kidneys projected CAD, mean (SD)” value ([1]; GEP-NET) was 21 (7.3) Gy and the “Kidneys projected CAD, median (range)” value ([1]; GEP-NET) was 21 (14–28) Gy. The “Kidneys absorbed dose coefficient, mean (SD)” value ([1]; PPGL) was 0.82 (0.32) Gy/GBq, the “Kidneys absorbed dose coefficient, median (range)” value ([1]; PPGL) was 0.71 (0.55–1.3) Gy/GBq and the “Pituitary absorbed dose coefficient, mean (SD)” value ([1]; PPGL) was 1.0 (0.45) Gy/GBq. For the same compound, the “Pituitary absorbed dose coefficient, median (range)” value ([1]; PPGL) was 0.93 (0.61–1.9) Gy/GBq, the “Pituitary projected CAD, mean (SD)” value ([1]; PPGL) was 31 (13) Gy and the “Pituitary projected CAD, median (range)” value ([1]; PPGL) was 28 (18–56) Gy. The “Red marrow (blood) absorbed dose coefficient, mean (SD)” value ([1]; PPGL) was 0.028 (0.0052) Gy/GBq, the “Red marrow (blood) absorbed dose coefficient, median (range)” value ([1]; PPGL) was 0.029 (0.022–0.035) Gy/GBq and the “Red marrow (blood) projected CAD, mean (SD)” value ([1]; PPGL) was 0.83 (0.16) Gy. For the same compound, the “Red marrow (blood) projected CAD, median (range)” value ([1]; PPGL) was 0.87 (0.64–1.0) Gy, the “Spleen absorbed dose coefficient, mean (SD)” value ([1]; PPGL) was 0.82 (0.17) Gy/GBq and the “Spleen absorbed dose coefficient, median (range)” value ([1]; PPGL) was 0.81 (0.64–1.1) Gy/GBq. The “Spleen projected CAD, mean (SD)” value ([1]; PPGL) was 24 (5.0) Gy, the “Spleen projected CAD, median (range)” value ([1]; PPGL) was 24 (19–31) Gy and the “Total body absorbed dose coefficient, mean (SD)” value ([1]; PPGL) was 0.041 (0.0073) Gy/GBq. For the same compound, the “Total body projected CAD, mean (SD)” value ([1]; PPGL) was 1.2 (0.21) Gy, the “Total body projected CAD, median (range)” value ([1]; PPGL) was 1.2 (0.97–1.5) Gy and the “Urinary bladder wall absorbed dose coefficient, mean (SD)” value ([1]; PPGL) was 0.59 (0.096) Gy/GBq. For the same compound, the “Urinary bladder wall absorbed dose coefficient, median (range)” value ([1]; PPGL) was 0.63 (0.47–0.68) Gy/GBq, the “Urinary bladder wall projected CAD, mean (SD)” value ([1]; PPGL) was 17 (2.8) Gy and the “Urinary bladder wall projected CAD, median (range)” value ([1]; PPGL) was 19 (14–20) Gy. For the same compound, the “Tumour absorbed dose coefficient, mean (SD)” value ([1]; PPGL, 10 lesions) was 1.5 (1.1) Gy/GBq, the “Tumour absorbed dose coefficient, median (range)” value ([1]; PPGL, 10 lesions) was 1.2 (0.17–3.3) Gy/GBq and the “Tumour projected CAD, mean (SD)” value ([1]; PPGL, 10 lesions) was 44 ± 34 Gy and 44 (34) Gy. The “Tumour projected CAD, median (range)” value ([1]; PPGL, 10 lesions) was 36 (4.9–98) Gy, the “Kidneys projected CAD, mean (SD)” value ([1]; PPGL) was 24 (9.3) Gy and the “Kidneys projected CAD, median (range)” value ([1]; PPGL) was 21 (16–40) Gy. For the same compound, the “AUClast, geometric mean (geometric CV%)” value [2, 7] was 41.00 (24.15) ng.h/mL, the “Cmax, geometric mean (geometric CV%)” value [2, 7] was 11.17 (33.04) ng/mL and the “Tmax, median (range)” value [2, 7] was 0.58 (0.50–0.77) hours. The “T½β, population value” ([2]; adolescents) was 36.9 h, the “AUCinf, overall mean ± SD” value [2, 8] was 0.03584 ± 0.00449 µg·h/mL and the “Cmax, overall mean ± SD” value [2, 8] was 0.01033 ± 0.00054 µg/mL. The “clearance, overall mean ± SD” value [2, 8] was 5.98 ± 0.69 L/h, the “Grade ≥ 3 biochemistry abnormalities” value [3] was “No” and the “deaths by data cutoff” value [4] was “no deaths”. The “patients with AEs that resulted in infusion interruptions” value [4] was 18%, the treatment-related nephrotoxicity [4] was “no treatment-related nephrotoxicity was observed” and the “Bone marrow Probability (%) >2 Gy” value [5] was 6%. For the same compound, the “Kidneys Probability (%) >29 Gy” value [5] was 13%, the “AUClast, geometric mean (geometric CV%)” value ([6]; Observed, adult GEP-NET N=20) was 30.08 (50.38) ng.h/mL and the “Cmax, geometric mean (geometric CV%)” value ([6]; Observed, adult GEP-NET N=20) was 8.98 (73.28) ng/mL. For the same compound, the “Tmax, median (range)” value ([6]; Observed, adult GEP-NET N=20) was 0.47 (0.25–1.17) hours and the T½β ([6]; adults with GEP-NET) was 59.1 h.

— paper PMC12397115 (European Journal of Nuclear Medicine and Molecular Imaging, 2025)
